Measurements taken from the supplement of paper PMC10724198.
± gives the standard deviation of the averaged measurements.

Key:
Experiment in all cases: protein stability index of tFT-peptide fusion (C-terminal peptide) (PSI (0-1 scale)); higher = more stable (slower turnover)
Saccharomyces cerevisiae [1] = settings: temperature: 30 C
Method: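 MPS profiling in S. cerevisiae of the yeast C-terminome library: the last 12 aa of each annotated ORF are fused to the C-terminus of a sfGFP-mCherry timer, after a GGGS linker. Cells are FACS-sorted into 8 mCherry/sfGFP bins and deep-sequenced. PSI runs from 0 (unstable) to 1 (stable); wild type and das1Δ backgrounds, two technical replicates each.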

Saccharomyces cerevisiae [2] = settings: genetic background: wild type; temperature: 30 C
Saccharomyces cerevisiae [3] = test system: Saccharomyces cerevisiae
Method: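 MPS profiling in S. cerevisiae of the tFT-X12 degron library: putative degron peptides plus stable controls, 12 aa, fused to the C-terminus of a sfGFP-mCherry timer. Cells are FACS-sorted into 8 mCherry/sfGFP bins and deep-sequenced. PSI runs from 0 (unstable) to 1 (stable). Backgrounds are wild type, das1Δ and doa10Δ at 30 °C, and wild type, das1Δ, cdc34-1 and cdc53-1 at 37 °C; 2-3 technical replicates each.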

[4] = genetic background: das1 deletion
[5] = genetic background: cdc34-1, temperature: 37 C
[6] = genetic background: cdc53-1, temperature: 37 C
[7] = genetic background: das1 deletion, temperature: 30 C
[8] = genetic background: das1 deletion, temperature: 37 C
[9] = genetic background: doa10 deletion, temperature: 30 C
[10] = genetic background: wild type, temperature: 30 C
[11] = genetic background: wild type, temperature: 37 C

| Sequence | protein stability index (Saccharomyces cerevisiae [1]; [4]) | protein stability index (Saccharomyces cerevisiae [1]; genetic background: wild type) | also measured |
| --- | --- | --- | --- |
| DEELFLLSKSLR [SPC98 C-terminal 12 aa] | 0.724 ± 0.013 | 0.6784 ± 0.0026 |  |
| DEGRNTSSVVNK [MAL31 C-terminal 12 aa] | 0.688 ± 0.0089 | 0.7419 ± 0.0019 |  |
| DELTTVLNQLVR [EXO70 C-terminal 12 aa] | 0.6823 ± 0.0024 | 0.66 ± 0.011 |  |
| DEMHYSDEDSSE [RRN11 C-terminal 12 aa] | 0.699 ± 0.073 | 0.709 ± 0.028 |  |
| DEYFNEYNNNSN [TFB1 C-terminal 12 aa] | 0.7196 ± 0.0065 | 0.675 ± 0.013 |  |
| DGIRQVDDFQAQ [PRE1 C-terminal 12 aa] | 0.701 ± 0.012 | 0.658 ± 0.0071 |  |
| DGITLDMPLFEF [AOS1 C-terminal 12 aa] | 0.7107 ± 0.0043 | 0.731 ± 0.047 |  |
| DHMQLTGRILVL [YJL132W C-terminal 12 aa] | 0.58733 ± 0.00058 | 0.5716 ± 0.0024 |  |
| DHQVDFLGNKIL [YLR463C C-terminal 12 aa] | 0.712 ± 0.0082 | 0.715 ± 0.022 |  |
| DHSNAFESILIF [TRS130 C-terminal 12 aa] | 0.6353 ± 0.0054 | 0.684 ± 0.093 |  |
| DIPSEEGTKVIL [BSC3 C-terminal 12 aa] | 0.701 ± 0.016 | 0.691 ± 0.011 |  |
| DKELDSTFDTFG [MIF2 C-terminal 12 aa] | 0.701 ± 0.012 | 0.699 ± 0.023 |  |
| DKEWTNYATHIG [AYT1 C-terminal 12 aa] | 0.696 ± 0.019 | 0.701 ± 0.013 |  |
| DKIQDARNSSTK [MHP1 C-terminal 12 aa] | 0.677 ± 0.028 | 0.702 ± 0.041 |  |
| DKYLCMLKTCVF [NUT1 C-terminal 12 aa] | 0.515 ± 0.019 | 0.517 ± 0.021 |  |
| DLVRTDQLCPNY [CQD1 C-terminal 12 aa] | 0.681 ± 0.021 | 0.682 ± 0.035 |  |
| DNDNDDDIDSDN [RUP1 C-terminal 12 aa] | 0.704 ± 0.051 | 0.6853 ± 0.0067 |  |

| Sequence | protein stability index (Saccharomyces cerevisiae [1]; [4]) | protein stability index (Saccharomyces cerevisiae [1]; genetic background: wild type) | also measured |
| --- | --- | --- | --- |
| DNFRERYFNNFN [TRM11 C-terminal 12 aa] | 0.71368 ± 0.00039 | 0.6816 ± 0.0054 |  |
| DNGELDLSGFNI [MED2 C-terminal 12 aa] | 0.696 ± 0.013 | 0.734 ± 0.073 |  |
| DNQSLPNSEKIK [CST6 C-terminal 12 aa] | 0.711 ± 0.017 | 0.7044 ± 0.0021 |  |
| DQPFYKKMFGKK [HXT3 C-terminal 12 aa] | 0.6926 ± 0.0016 | 0.698 ± 0.042 |  |
| DRIESSSGRISW [SPC110 C-terminal 12 aa] | 0.702 ± 0.022 | 0.681 ± 0.028 |  |
| DSEIEMLKGRLQ [EPO1 C-terminal 12 aa] | 0.6666 ± 0.002 | 0.694 ± 0.026 |  |
| DSELGCCCCFFN [EDS1 C-terminal 12 aa] | 0.701 ± 0.03 | 0.696 ± 0.018 |  |
| DSIADEFSSLYF [SPR6 C-terminal 12 aa] | 0.7689 ± 0.0042 | 0.721 ± 0.046 |  |
| DSPDFKKHLEKK [RSM10 C-terminal 12 aa] | 0.684 ± 0.025 | 0.721 ± 0.046 |  |
| DSTVLDFVESIS [HER2 C-terminal 12 aa] | 0.7089 ± 0.005 | 0.694 ± 0.06 |  |
| DTGNTIKCEFIL [ERG29 C-terminal 12 aa] | 0.7022 ± 0.0068 | 0.699 ± 0.017 |  |
| DTTFPQDQHDID [PUT7 C-terminal 12 aa] | 0.696 ± 0.012 | 0.629 ± 0.059 |  |
| DVETRVQNLEQT [DPB4 C-terminal 12 aa] | 0.713 ± 0.032 | 0.699 ± 0.013 |  |
| DVIDTIMSKQEP [UGA4 C-terminal 12 aa] | 0.698 ± 0.02 | 0.6826 ± 0.0027 |  |
| YTHRYFVRLFAV |  |  | protein stability index (Saccharomyces cerevisiae [2]): 0.3123 ± 0.0026; protein stability index (Saccharomyces cerevisiae [3]; [5]): 0.518 ± 0.047; protein stability index (Saccharomyces cerevisiae [3]; [6]): 0.708 ± 0.0076; protein stability index (Saccharomyces cerevisiae [3]; [7]): 0.504 ± 0.019; protein stability index (Saccharomyces cerevisiae [3]; [8]): 0.6558 ± 0.0057; protein stability index (Saccharomyces cerevisiae [3]; [9]): 0.206 ± 0.0073; protein stability index (Saccharomyces cerevisiae [3]; [10]): 0.2 ± 0.014; protein stability index (Saccharomyces cerevisiae [3]; [11]): 0.405 ± 0.0098 |
| YVLVVSFLACVF |  |  | protein stability index (Saccharomyces cerevisiae [2]): 0.192 ± 0.012; protein stability index (Saccharomyces cerevisiae [3]; [5]): 0.0628 ± 0.013; protein stability index (Saccharomyces cerevisiae [3]; [6]): 0.172 ± 0.053; protein stability index (Saccharomyces cerevisiae [3]; [7]): 0.142 ± 0.03; protein stability index (Saccharomyces cerevisiae [3]; [8]): 0.266 ± 0.0094; protein stability index (Saccharomyces cerevisiae [3]; [9]): 0.104 ± 0.021; protein stability index (Saccharomyces cerevisiae [3]; [10]): 0.13 ± 0.014; protein stability index (Saccharomyces cerevisiae [3]; [11]): 0.234 ± 0.0088 |
| YWIFCYFFWGGV |  |  | protein stability index (Saccharomyces cerevisiae [2]): 0.455 ± 0.037; protein stability index (Saccharomyces cerevisiae [3]; [5]): 0.392 ± 0.032; protein stability index (Saccharomyces cerevisiae [3]; [6]): 0.483 ± 0.0098; protein stability index (Saccharomyces cerevisiae [3]; [7]): 0.358 ± 0.032; protein stability index (Saccharomyces cerevisiae [3]; [8]): 0.518 ± 0.008; protein stability index (Saccharomyces cerevisiae [3]; [9]): 0.3153 ± 0.0014; protein stability index (Saccharomyces cerevisiae [3]; [10]): 0.35 ± 0.015; protein stability index (Saccharomyces cerevisiae [3]; [11]): 0.501 ± 0.02 |
